Article doi:10.1101/2021.04.06.21255004

Legend:
[1] = target: Endothelial nitric oxide synthase (Homo sapiens*) (UniProt P29474)
[2] = target: purified human alpha globin (human) (UniProt P69905); assay: BLI
purified human alpha globin (human), sequence (P69905 whole entry): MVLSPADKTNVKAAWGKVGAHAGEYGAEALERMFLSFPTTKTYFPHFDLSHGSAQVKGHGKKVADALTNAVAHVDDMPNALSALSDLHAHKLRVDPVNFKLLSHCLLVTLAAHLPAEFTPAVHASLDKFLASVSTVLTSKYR

Endothelial nitric oxide synthase (Homo sapiens*), sequence (P29474 66-492): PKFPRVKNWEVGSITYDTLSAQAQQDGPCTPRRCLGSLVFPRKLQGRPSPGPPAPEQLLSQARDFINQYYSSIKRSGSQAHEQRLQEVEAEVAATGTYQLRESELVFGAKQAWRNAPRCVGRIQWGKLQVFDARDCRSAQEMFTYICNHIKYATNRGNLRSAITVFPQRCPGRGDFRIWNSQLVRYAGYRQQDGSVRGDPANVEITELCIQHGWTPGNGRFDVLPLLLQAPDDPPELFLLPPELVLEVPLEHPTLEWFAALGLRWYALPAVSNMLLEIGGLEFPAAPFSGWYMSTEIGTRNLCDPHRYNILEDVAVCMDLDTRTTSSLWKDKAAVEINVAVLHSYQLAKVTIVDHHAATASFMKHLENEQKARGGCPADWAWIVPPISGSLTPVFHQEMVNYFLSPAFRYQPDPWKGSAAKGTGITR
recombinant human eNOS oxidase domain (domain or fragment), sequence (P29474 2-1203): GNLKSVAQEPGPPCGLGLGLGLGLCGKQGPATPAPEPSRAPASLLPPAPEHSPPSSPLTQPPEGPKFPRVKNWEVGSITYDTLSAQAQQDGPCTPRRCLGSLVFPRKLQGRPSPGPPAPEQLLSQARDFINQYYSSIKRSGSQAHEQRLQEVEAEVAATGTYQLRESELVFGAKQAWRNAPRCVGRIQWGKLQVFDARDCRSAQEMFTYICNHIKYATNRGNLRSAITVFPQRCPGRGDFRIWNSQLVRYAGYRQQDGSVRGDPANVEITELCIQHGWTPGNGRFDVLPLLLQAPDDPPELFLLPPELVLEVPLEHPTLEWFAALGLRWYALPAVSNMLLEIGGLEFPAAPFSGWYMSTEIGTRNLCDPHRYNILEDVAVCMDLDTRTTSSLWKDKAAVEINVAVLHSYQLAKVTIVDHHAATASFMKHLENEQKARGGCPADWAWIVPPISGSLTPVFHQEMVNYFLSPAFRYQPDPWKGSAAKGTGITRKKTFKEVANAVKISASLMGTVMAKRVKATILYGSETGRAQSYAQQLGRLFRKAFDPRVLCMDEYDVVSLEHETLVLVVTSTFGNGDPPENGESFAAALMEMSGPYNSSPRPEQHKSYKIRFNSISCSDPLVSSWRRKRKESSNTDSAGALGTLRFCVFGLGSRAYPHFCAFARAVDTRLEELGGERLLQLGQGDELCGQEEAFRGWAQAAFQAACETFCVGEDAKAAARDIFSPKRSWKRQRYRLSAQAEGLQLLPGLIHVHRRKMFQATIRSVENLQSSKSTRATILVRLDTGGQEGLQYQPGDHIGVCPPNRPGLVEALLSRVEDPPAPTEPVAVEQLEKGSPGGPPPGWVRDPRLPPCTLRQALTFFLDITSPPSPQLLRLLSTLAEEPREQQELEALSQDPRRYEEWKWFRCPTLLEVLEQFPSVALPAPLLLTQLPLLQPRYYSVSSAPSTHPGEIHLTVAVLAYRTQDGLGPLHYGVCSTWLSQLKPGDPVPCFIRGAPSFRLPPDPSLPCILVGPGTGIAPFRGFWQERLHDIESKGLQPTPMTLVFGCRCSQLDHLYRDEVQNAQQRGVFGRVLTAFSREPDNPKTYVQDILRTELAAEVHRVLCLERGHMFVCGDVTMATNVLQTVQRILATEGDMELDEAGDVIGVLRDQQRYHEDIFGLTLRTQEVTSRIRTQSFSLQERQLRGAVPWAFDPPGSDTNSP
Alpha globin, sequence (P69905 2-142): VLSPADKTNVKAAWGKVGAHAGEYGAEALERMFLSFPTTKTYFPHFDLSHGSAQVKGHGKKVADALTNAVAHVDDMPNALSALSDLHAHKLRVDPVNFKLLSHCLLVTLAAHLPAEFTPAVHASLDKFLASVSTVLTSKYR

Substance	Kd [1]	Kd [2]
Alpha globin (from UniProt P69905)	1300 nM	
recombinant human eNOS oxidase domain (domain or fragment)		1310 nM
